This data set can be described thus: soluble on expression in E. coli; label from the status in PepcDB or PDB records.
Consider “TDQGSTGIYYISIEGLVYPIRLEKEYINSFSLSPDEQHFIASVTKPDRPSELYSIPLGQEEKQLTGANDKFVREHTISIPEEIQYATEDGVMVNGWLMRPAQMEGETTYPLILNIHGGPHMMYGHTYFHEFQVLAAKGYAVVYINPRGSHGYGQEFVNAVRGDYGGKDYDDVMQAVDEAIKRDPHIDPKRLGVTGGSYGGFMTNWIVGQTNRFKAAVTQRSISNWISFHGVSDIGYFFTDWQLEHDMFEDTEKLWDRSPLKYAANVETPLLILHGERDDRCPIEQAEQLFIALKKMGKETKLVRFPNASHNLSRTGHPRQRIKRLNYISSWFDQHL”, for which the “soluble on expression in E. coli” value was “not soluble”.
“TDFIWNLTWMGSTVTNKVLKLTGESPEIIKGVFSIKEGMPINTYYMAKSAGVDPATGAQLYWVYDKDDNGNITNEYISSDYQKAANSKYYSGSRIPDLYGSINTDFSYKNFDLSILGTYSIGGKVYDSLYAGSMEVMYAGNTWNKHALRRWQQPGDITDVPRIQIGGSYTTSDRFLVDASYFAIKNITLGYTIPKQWLKKAGLESVRIFGSVDNLALFSHLDGMDPQYNFKGETDYSYAPNKTYSVGFEINF”: the “soluble on expression in E. coli” value is “not soluble”.
On to “MGSDKIHHHHHHMLTRLEVNCFKNLLGFSVNFGPFNCVAGLNGVGKSNIFDSIKFLSLLADKSIVEAALEVRESDSTDPLDIFWTNGEFRSERLSLAVEMIVPVDVIDDFGRRAKATSTFLRYEVELARDDGERESGSLGLHLVKETLIHINKGEAVDRLRFPMSAAKFRENIVINKRKGAGFISTHQDRDGIVEIHLHQDGGSSGQPQKFPARNAPKTVVSNTNSGVWPTILAARREMQSWRFLSLEPSAMRRSNKIHEEGAVSSGGGRLGAALYKLHRKDPSVYTRVASRLSEIVPTSDIRVDVDQVRQLLTVEVKERSGAFLPARALSDGTLRFLALSIIAEDPDFNGVLCFEEPENGIHPARVGAMLALLKELSVDPHDEVSESNSMRQIVVATHSPVLVSLEEPNDLIFADVVKVKGPNGMPATTIRCKCLRESWRFSDEEGNGIDRASIISYLELPPDRQISLNLKTTGVAINLEATV”, for which the “soluble on expression in E. coli” value is “not soluble”.
Regarding “MPTPARKTQKGGRKRRVNGVEEEILYIIGFFQDDSSIGLSTFFTKFCILYQDSKSNFRVLNLEMFSPENLNARKKMSQEKDTPSH”, the “soluble on expression in E. coli” value was “not soluble”.
In the case of “MAHHHHHHMFVRSFCFLRKYGSKSKTPDLKTSFTKTTNFRKAEKISITTTDGEIVKGRGKIRRRTHSALKEAIGAMEHPAIWLWYPWRMNPEPPTPHMPQRRALKNVHGAVFNDLTPVQKKRQEQMLYGVNIPETRQMKFEEQHPLLAGALRKLEGQPKGFPFWYRKYPTRRHAYEYRFSIPVEMLDGYNDDVKKALSKGMMSIQEKQFAQEAMYMERYAEHDFDTTSPAVLAVKRALKCRVLRNHLLTNPHNNIIKTVLANTERKLNHALRRLRKVDFKKYWEIIRDHDVQDILQPPNLVTYRQGSYWKYDWNAGLAISTNLADVMDPRGLNGCVETGRSRSEVARDLGLSYTRPLHENEKKQLSHQAVYYERLAKFKMEQPEAARAMERERFVRKFSGMFVKMDIRSGAPDFPSTYRRLLGTKVVRWASKRHGPN”, the “soluble on expression in E. coli” value is “not soluble”.
In the case of “SMQEKREELRMRSENQAMNIVLQRQYDQYRLSIDNIELLRREFHDLKHYMIAIRSEQDPKKKEQYLLEMEEAIHTQEALTNTGNSVLDVVLTTKSTYCMQKHITFTCMADGKLISFMHVKDICSIFGNALDNAIECVSQFDDPEKRLITLSMYQKNQLLMIQCENYTETSLSLKPDQLPTTTKQNAGYHGYGLKSIQQAARKYGGSMTLHAEDNWFTLQVLIPVES”, the “soluble on expression in E. coli” value is given as “not soluble”.
Next, “MRKSLTDIYEARVDAEELRADPAQHAVLEDLEGIRQWLEAHPERKRGLFGLFAAKEEPPKGLYLWGGVGRGKSMIMDLFTEAVEIPMKRRVHFHAFMQEVQQGMHEARKKGVEDALQPVADSVAGQVRLLAFDEMQITDITDAMVVGRLFQKLFEQGVVIVTTSNRPPEGLYENGLNREVFLPFIDLLRERMTVIELESPTDYRQHRLQGAQVFFHPARKAEQAIARIWSDLTGGDRGHPMRLPVNGRTVEIPRFANGVGRATFWGLCARPLGPADFLAIAEACRVLILEDIPRLSAENYNEAKRFVTLIDALYEARVRLIASAADEPERLYIEGEGSFEFERTASRLREMQSADWANLEHHHHHH”: “not soluble”; “MGHHHHHHSHIKKNNHHEENISSKMKGLNGKVSDLEKAAAQRKAKLDENSAFLQFNWKADVVESWIGEKENSLKTDDYGRDLSSVQTLLTKQETFDAGLQAFQQEGIANITALKDQLLAAKHVQSKAIEARHASLMKRWSQLLANSAARKKKLLEAQSHFRKVEDLFLTFAKKASAFNSWFENAEEDLTDPVRCNSLEEIKALREAHDAFRSSLSSAQADFNQLAELDRQIKSFRVASNPYT”: “not soluble”.
On to “MKKLAAIISATLLFASSAAVAEVYVGGKVGKSWLDDACLAGQSCEDDDQVVGAFLGYQANKWLSLEAGYDYLGKFTAAGLNDEKVQAVTLAPKLSIPLTEGIALYGKVGGAYVDYGSKDDYSYLGAAGLEFNTNHNVTMRLEYQNLTDINNDIVRARAETATLGIAYKFGGSEEPAPVVEQRPAEPAPVAAPVEKVAVTKTFTFQHLDSSTFATASAELKPATVQKLDKIVGYLNQYPQAKVEVVGHTDSTGSEAYNQKLSERRAQAVAKALEAQGIDASRISAKGLGESSPIASNATAEGREKNRRVELVIPEFQYQVTE”, for which the “soluble on expression in E. coli” value is on record as “not soluble”.
Next, “MGSDKIHHHHHHVSDTVDHNAWKTTGVVVIQNDVLTLAGSNARALLNDGKGYTNFELDMDVRTTTGGKGYIGIHTDATDRKGYRIALNNDREDPVWWRMTGSLVSVRNLTKSFVKENEWFKMNIRVEGRLIRVRINGETVVEYIEPSKPFRLKENAKALLSQGTISLVGTGRGNLQFKNISLEAFSAKGIDIPAQWANAVDEQTDEIIRLHQEDFPVLDYHVHLKGGLTKEVAARQSRQTGVNYGLAINCGIGFSITNDTELYNYLDTMRTQPFILAMQAEGREWVTTFSEAARNSFDYVFTDAMTFLDHKGRRTHLWVNKEVIIDDEQAYMDMMLDRICSVLEEPVDMYVNSCFLPDAMSDRYDMFWTEERIDRFVNALAKSGKALEINELYHIPNKAIIQKAKAAGVKFTFGSNNITPEVGTLDYCIRMKKECGLTAQDMYKPHINI”: “not soluble”.
The entry for “MTQAILALSQIEKAFPGVKALDKASLNVYPGRVMALMGENGAGKSTLMKVLTGIYSKDAGSIEYQGQPVSFKGPRDSQLAGISIIHQELNLIPQLTIAENIFLGREMTSPFGRILWDEMHRKADQLLARLNVKHSAKTLLGELSLGEQQMVEIAKALSFESKVIIMDEPTDALTDTETESLFNVINELREQGCGIVYISHRLKEIFEICDDITVLRDGKFIGECRVCDTNEDGLIEMMVGRKLEEQYPRIAAQQGDISLEVIGLTGSGVHDVSFTLKKGEILGVSGLMGAGRTELMKVIYGALPSERGVINLNGRTVNPVSPQDGLANGIAYISEDRKGDGLVLGLSVKENMSLCALDQLSKGVQIRHADEVIAVDDFIRLFNIKTPSREQIIGNLSGGNQQKVAIAKGLMTKPKVLILDEPTRGVDVGAKKEIYQLINQFKAEGMSIILVSSEMPEVLGMSDRILVMHEGRISGEFMASEADQEKLMACAVGRNPAHAA” is “not soluble”; for “DAYIGVLIDDLVTKGTNEPYRLLTSRAEYRLLLRHDNADLRLTEIGHRIGLISDERYAAFEKKKAAIEAEKKRLHSVIIKPSPENQEYIRSLGGSELKDGVRGTDLMKRPEMNYETVTKLAPPEVPVPQDVAEQVEIQVKYEGYIEKSLQQVEKLKKMENKKIPDRIDYDAIKGIATEARQKLKNVRPLSVAQASRISGVNPADISILLVYLE” it is “not soluble”; for “MGSDKIHHHHHHMQKTPALLSDIGNNEDASVYQISPDLALVQTLDFITPIVDSAYHFGAIAAANALSDVFAMGAEVINALNIVGFDTCNHDLNILKELLEGANDKVKECNALVVGGHTIESTELFFGLSVTGKVHPSKFIANNTSKIGDCIILTKPLGTGILSTALKAQMLNQKHLDIMLKNMIELNYKASQIALKFHPSAMSDVTGFGLLGHLKEMLNKNISFEIFESELPFLDGVKEYFNMGLIPAGAYKNLEFIKELTPDLNEEKLLLCDPQTSGGLLISISEKDSLECLKKLEDENIQAKIIAKVVNKQENDIIIS” it is “not soluble”.
For “MDVRSAPSNHATAVPTAQPSAPSIKSTLSKLFRAQCSDPVPLSSSSSTERIAPPRVTANYSAVVDISKTASHSKTNADTAEKNSFSWLKNKLSTVSENQQKKQAIQNFIAQVSQQYNVEEDVAKLAVAASGAYRQLRFEETQQQRVHACLQDTEALTAMIDLATRKPLTYKMVMGLDSSDCSFDPIARISDHDILTEAEQCQVVRSAFASADKVCVVTSYGIKPLGAPKSDALSPTIASVLQGFASKQHDKDFTGVFFYQKSDAIQNYYTEDKRTNISIKENDWAKAVTLFNAAVERGEIEGPKEGLK”, the “soluble on expression in E. coli” value is listed as “not soluble”.
“MAHHHHHHMREKTTSAATPMRCRKELAATLTRTRNSPRTPVTFELATERGLHNFSRRGPRVRAKSSIAVHAATASPLSLLEQTLWTEIEQLNAATNRLRERILEVKREFSADAIAAVTGGEPLPVEARTGGLFRNPPKQRGQNSKDEPPYAVTFTPSHSQKKAANVRLQFTSPRKTPMKENDSSVLTSLAMFEYTPQNDDHREGARPTENRNVLQELKRDETFETGTPVHLSEAATMGGPFVVDLQKSDHGAANNTAEKPTELSTSVDSARESAKHLLLQANMMGVEQDLNHYMSDLLAIQRDTLDAQKRGLIDPNDSSVRELRLGIRDELNACRARILTLESLQTSLSAGVATKKTIS”: the “soluble on expression in E. coli” value was “not soluble”.
The entry for “MIADWLEQNGYPISSQVLKTEMSGNYMESAEKHVENGEKIDNLLRSQLKIDIRDGTGDDFERKSIKSIGAGRPFAKINMVDKQRAPLKITPLSDEEFRKTMRKRMEMERERLARLSNQAEDDSDDSSSSSDSSTSSASSSSEEKLTFSDILGKPTAAGAEKMIELSQIPNAWGPSKSALVTDDVASTSDPLPAIFNAHLPPLSMGRPPLTKSAKSREIDAIFGSDNVDYDLEDFEQDGVAKKKSILPMEKKKEEAKPKEQELVEPLVLSEGESIDELEDFDTGLLSSGGSDYSF” is “not soluble”.
Take “MAAGFGRCCRVLRSISRFHWRSQHTKANRQREPGLGFSFEFTEQQKEFQATARKFAREEIIPVAAEYDKTGEYPVPLIRRAWELGLMNTHIPENCGGLGLGTFDACLISEELAYGCTGVQTAIEGNSLGQMPIIIAGNDQQKKKYLGRMTEEPLMCAYCVTEPGAGSDVAGIKTKAEKKGDEYIINGQKMWITNGGKANWYFLLARSDPDPKAPANKAFTGFIVEADTPGIQIGRKELNMGQRCSDTRGIVFEDVKVPKENVLIGDGAGFKVAMGAFDKTRPVVAAGAVGLAQRALDEATKYALERKTFGKLLVEHQAISFMLAEMAMKVELARMSYQRAAWEVDSGRRNTYYASIAKAFAGDIANQLATDAVQILGGNGFNTEYPVEKLMRDAKIYQIYEGTSQIQRLIVAREHIDKYKN”: the “soluble on expression in E. coli” value is given as “soluble”.
For the sequence “MAKLDDWTDIFLDDEGNFRASADGDVQLVTGKAAYLQDVKHELETVLGSYPFDENYGTRLITYLQRENTELARQELIQDVEEVVMRHSFVVPGSVDVRANSWTLREIEFSVSFGVQTSGGIEPAELTVQITVDGVRVVRSE”, the “soluble on expression in E. coli” value was “not soluble”.
“MSSHPPIRSYVLRQGYFSNAQRHAYESLLPRYGIPLTEEPVDLDSIFGRTAPGILEIGSGMGETTAEIARQHPEKDFIAIEVHAPGIGSLLGQIEKHRLTNLRIIPHDAKLVLQQMFTSESLDGIHIFFPDPWPKARHHKRRLIQPDFVSLLCDRLKPGGYLHIATDWEDYATHILHVLRSEERFVNTAVDYAARPAYRPLTKFEQRGMKLGHTIRDIIFTRTALEHHHHHH”: the “soluble on expression in E. coli” value was “not soluble”.
